Data on two molecules can be found in US20080267949A1, “Peptides capable of binding to serum proteins” (Ablynx N.V., priority 2006, published 2008).

In data set [1] the target is T1, bovine serum albumin (bovine, UniProt P02769 25-607).
T1 construct: also called BSA
The experiment in a line: phage binding assay on coated Maxisorp wells, 5 phage dilutions per peptide, Odyssey image. On the procedure: (§1) Binding of 17D12, as selected from primary screening after 2 selection rounds on HSA, to serum albumin of different species [mouse serum albumin (MSA, A3559, Sigma), cynomolgus serum albumin (CSA, in-house production), bovine serum albumin (BSA, A6003, Sigma) and HSA] and to negative control antigens [ovalbumin, human tumor necrosis factor α (TNF, in-house production)] was assessed using different phage concentrations. Additionally, similar binding studies were performed with two truncated variants of 17D12. Both peptides, i.e. 17D12-CDR3-NC (SEQ ID NO: 26) and 17D12-CDR3-C (SEQ ID NO;27), lack the flanking FR residues of 17D12 and the former is a non-constrained loop, whereas the latter is constrained (FIG. 4).
(§2) The phage binding assay was performed essentially as described in example 4. Full length 17D12 peptide as well as truncated peptides, 17D12-CDR3-NC and 17D12-CDR3-C, bind dose-dependently to HSA and CSA, whereas reactivity to MSA and BSA was not apparent in the assay performed (FIG. 6). There is no significant non-specific binding of 17D12 and 17D12-CDR3-NC to irrelevant proteins tested (ovalbumin and TNF). In contrast, there is a subtle degree of non-specific binding with the constrained truncated peptide.

Data set [2] addresses T2, human tumor necrosis factor α (human, UniProt P01375 77-233).
T2 construct: Negative control antigen; also called TNF
The description is as above. On the procedure:
as §1, §2

Data set [3] has as its target T3, mouse serum albumin (mouse, UniProt P07724 25-608).
T3 construct: also called MSA
Described as above. On the procedure: as §1, §2

The target in data set [4] is T4, ovalbumin (negative control antigen) (UniProt P01012 2-386).
T4 construct: Bought protein
T4 sequence (looked up): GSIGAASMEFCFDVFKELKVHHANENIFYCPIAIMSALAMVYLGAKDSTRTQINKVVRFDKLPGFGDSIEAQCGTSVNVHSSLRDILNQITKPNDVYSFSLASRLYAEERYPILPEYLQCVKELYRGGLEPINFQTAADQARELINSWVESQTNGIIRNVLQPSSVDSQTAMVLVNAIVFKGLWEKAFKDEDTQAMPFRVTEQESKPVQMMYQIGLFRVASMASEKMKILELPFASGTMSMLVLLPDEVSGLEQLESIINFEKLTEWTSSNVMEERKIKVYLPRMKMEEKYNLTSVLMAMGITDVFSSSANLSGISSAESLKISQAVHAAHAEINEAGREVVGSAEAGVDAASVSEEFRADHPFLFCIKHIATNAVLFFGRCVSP
The data set is described as above. The procedure:
as §1, §2

Data set [5] has as its target T5, human serum albumin (human, UniProt P02768 25-609).
T5 construct: Bought protein; also called HSA
The experiment in a line: phage binding assay: 10 µg/mL HSA coated on Maxisorp, M13 phage displaying the peptide on pIII in 1/2 dilution series, anti-M13 + goat anti-mouse IRDye700, Odyssey intensity. On the procedure: After two selection rounds, monoclonal phage were screened for binding on HSA versus negative control antigen, ovalbumin (A5378, Sigma). Wells of a Maxisorp microtiter plate (Nunc) were coated using 10 μg/mL HSA or ovalbumin and blocked with SuperBlock T20 PBS Blocking Buffer (Pierce) to prevent non-specific binding. Phages, produced in 96-well plate, were diluted 1/10 in 1:1 (v:v) Superblock T20 PBS Blocking Buffer:PBS+0.05% Tween-20 and incubated on both HSA and ovalbumin. Bound phages were detected using anti-M13 (GE Healthcare) and goat anti-mouse IRDye700 (Rockland) and signals were read-out on Odyssey (LI-COR Biosciences). […] This peptide is referred to as 17D12. Its full amino acid sequence is given in SEQ ID NO: 1, and its encoding nucleotide sequence is given in SEQ ID NO:2. The amino acid sequence of the CDR3 loop is given in SEQ ID NO:3.
The phage binding assay was performed essentially as described in example 3. Phages, produced in 10 mL culture volume, were incubated on both HSA and ovalbumin in a ½ dilution series, starting with 7.5×10¹¹ phages/mL. […] Non-specific binding to ovalbumin is slightly higher for the constrained truncated peptide.

The target in data set [6] is T6, cynomolgus serum albumin (cynomolgus, UniProt A2V9Z4 25-608).
T6 construct: also called CSA; cynoSA
T6 sequence (A2V9Z4 25-608 limits assumed): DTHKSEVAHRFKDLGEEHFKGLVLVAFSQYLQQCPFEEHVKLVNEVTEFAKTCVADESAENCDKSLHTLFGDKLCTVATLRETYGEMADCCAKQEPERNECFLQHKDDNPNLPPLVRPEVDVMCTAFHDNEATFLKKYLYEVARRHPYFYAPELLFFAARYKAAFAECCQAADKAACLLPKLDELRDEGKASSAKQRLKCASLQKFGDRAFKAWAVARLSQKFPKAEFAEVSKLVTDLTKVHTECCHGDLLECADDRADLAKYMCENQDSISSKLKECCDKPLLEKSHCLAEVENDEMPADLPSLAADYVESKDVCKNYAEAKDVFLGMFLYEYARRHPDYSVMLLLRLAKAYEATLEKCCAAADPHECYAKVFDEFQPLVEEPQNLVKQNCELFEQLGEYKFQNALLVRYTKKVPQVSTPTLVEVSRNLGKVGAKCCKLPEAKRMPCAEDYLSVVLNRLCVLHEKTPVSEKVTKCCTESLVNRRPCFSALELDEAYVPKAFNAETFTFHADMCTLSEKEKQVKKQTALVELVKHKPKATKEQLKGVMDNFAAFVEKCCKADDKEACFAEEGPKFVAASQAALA
The experiment in a line: phage binding assay on coated Maxisorp wells, 5 phage dilutions per peptide (concentrations not given), Odyssey image. The procedure: as §1, §2

Data set [7] addresses T7, human serum albumin (HSA) (Homo sapiens, UniProt P02768).
T7 construct: purchased Sigma A5763
It counts as binding. The procedure:
FIG. 10: Surface plasmon resonance analysis of the binding of Nanobody® (2D3) and Nanobody® fusion peptide (2D3-17D12) on human serum albumin (HSA). Coating of the chip (CM5) was performed by amine coupling using NHS/EDC for activation and ethanolamine for deactivation (Biacore amine coupling kit). hip coated with 7000 RU human serum albumin (Sigma, 99% pure) and 2500 RU irrelevant protein antigen. 2D3 and 2D3-17D12 was successively injected over the chip in increasing concentrations (1.25 μM, 2.5 μM and 5 μM). HBS-EP was used as flow buffer at a rate of 10 μl min-1.20 μl of sample was injected for 20 s.
The 2D3-17D12 fusion protein […] […] […] (SEQ ID NO: 30) was expressed in E. coli TG1 cells. The fusion protein was purified by IMAC/SEC and binding to HSA was assessed in BIAcore™ 3000. Therefore, a dilution series of 2D3-17D12 fusion protein and 2D3 Nanobody was injected on a CM5 chip coated with high density HSA (7000RU). […] Calculated affinity of 2D3-17D12 for HSA is ˜10 μM.

Data set [8] addresses T8, rhErbB2-Fc antigen (Homo sapiens, UniProt P04626).
T8 construct: purchased R&D Systems
The experiment in a line: Surface plasmon resonance: simultaneous binding to HER2 and HSA, chip coated with rhErbB2-Fc. The following applies: pre-incubated with HSA (1 and 5 μM); ~3000 RU rhErbB2-Fc. The procedure: FIG. 11: Surface plasmon resonance analysis of simultaneous binding of 2D3-17D12 fusion protein to HER2 antigen and human serum albumin (HSA). 2D3-17D12 fusion protein was pre-incubated or not with 1 and 5 μM HSA, followed by flow over immobilized 2D3 target antigen, rhErbB2-Fc. The dotted line represents the binding characteristics of 2D3 in presence of 25 μM HSA.
To examine whether the 2D3 Nanobody and the 17D12 CDR3 can simultaneously bind their respective target antigen (Her-2 antigen for 2D3 Nanobody, albumin for 17D12 CDR3), the following experiment was performed. 2D3-17D12 fusion protein was pre-incubated or not with increasing concentration of HSA and then injected on a CM5 chip coated with rhErbB2-Fc antigen (R&D Systems) at a density of ˜3000 RU.

Data set [9] has as its system irrelevant protein. Put plainly: Surface plasmon resonance control on CM5 chip coated with irrelevant protein. It counts as binding. Particulars: 2.5 μM injected; 2400 RU irrelevant protein.

Ends that are not written are not given here.

T1 sequence (P02769 25-607 limits assumed): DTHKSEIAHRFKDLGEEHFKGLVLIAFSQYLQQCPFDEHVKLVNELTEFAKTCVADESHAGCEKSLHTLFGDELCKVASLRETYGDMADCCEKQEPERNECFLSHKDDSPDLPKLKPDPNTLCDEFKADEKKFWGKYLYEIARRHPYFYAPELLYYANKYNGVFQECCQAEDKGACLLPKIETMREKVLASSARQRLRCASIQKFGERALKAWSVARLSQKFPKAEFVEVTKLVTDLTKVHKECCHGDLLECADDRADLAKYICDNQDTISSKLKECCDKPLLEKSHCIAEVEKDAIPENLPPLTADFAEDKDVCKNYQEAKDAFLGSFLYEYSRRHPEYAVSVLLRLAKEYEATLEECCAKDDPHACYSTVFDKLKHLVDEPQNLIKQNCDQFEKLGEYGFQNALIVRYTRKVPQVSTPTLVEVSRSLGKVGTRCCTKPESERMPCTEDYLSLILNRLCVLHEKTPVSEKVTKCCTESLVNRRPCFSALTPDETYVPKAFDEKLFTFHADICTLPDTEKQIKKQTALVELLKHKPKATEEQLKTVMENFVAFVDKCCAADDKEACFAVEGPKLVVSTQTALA
T2 sequence (P01375 77-233 limits assumed): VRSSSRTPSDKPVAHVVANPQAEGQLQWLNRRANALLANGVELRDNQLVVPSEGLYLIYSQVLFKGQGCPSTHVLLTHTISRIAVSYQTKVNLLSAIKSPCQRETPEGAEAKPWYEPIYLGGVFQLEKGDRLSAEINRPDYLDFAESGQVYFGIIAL
T3 sequence (P07724 25-608 limits assumed): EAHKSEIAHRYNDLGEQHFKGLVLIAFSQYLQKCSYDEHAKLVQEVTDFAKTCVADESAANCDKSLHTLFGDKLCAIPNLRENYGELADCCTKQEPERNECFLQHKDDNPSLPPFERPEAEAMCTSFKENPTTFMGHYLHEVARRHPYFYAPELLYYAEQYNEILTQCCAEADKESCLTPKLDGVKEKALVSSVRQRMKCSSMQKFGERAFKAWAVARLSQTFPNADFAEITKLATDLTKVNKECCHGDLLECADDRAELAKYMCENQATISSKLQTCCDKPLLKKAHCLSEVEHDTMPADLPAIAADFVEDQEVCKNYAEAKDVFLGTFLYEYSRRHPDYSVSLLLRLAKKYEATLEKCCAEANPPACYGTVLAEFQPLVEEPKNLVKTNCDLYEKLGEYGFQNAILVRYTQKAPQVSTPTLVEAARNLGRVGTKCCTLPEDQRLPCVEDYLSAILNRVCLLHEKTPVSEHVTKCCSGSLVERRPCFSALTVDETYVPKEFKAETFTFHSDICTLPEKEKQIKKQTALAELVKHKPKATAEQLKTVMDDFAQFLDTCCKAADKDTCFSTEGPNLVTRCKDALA

With AAASYSDYDVFGGGTDFGPA (peptide, not shown: large carriers, not fully specified, Tested as phage), the binding result in [1] is listed as “no binding”; in [2] it was “no binding”; in data set [3], “no binding”; in data set [4], “no binding”; in data set [6], “binds”. In [5], the “EC50 (read off the curve)” value was roughly 7e+10 phage/mL.

B1: 2D3-17D12: fusion of HER2-binding VHH 2D3 with HSA-binding peptide 17D12, expressed in E. coli TG1 (protein)
chain: EVQLVESGGSLVQPGGSLRLSCAASGFTFDDYAMSWVRQVPGKGLEWVSSINWSGTHTDYADSVKGRFTISRNNANNTLYLQMNSLKSEDTAVYYCAKNWRDAGTTWFEKSGSAGQGTQVTVSSDTAVYYCNAAASYSDYDVFGGGTDFGPWGQGTQVGGGS
modifications: 2D3-17D12 fusion protein
In the case of B1, the Kd in data set [7] is roughly 10 µM. The “Binding to HSA (SPR)” value in data set [7] (7000 RU HSA, injected at 1.25, 2.5 and 5 μM) is “dose-dependent binding”. In addition, the “Off-rates on rhErbB2-Fc, premixed with HSA compared to control injection” value in [8] was “slightly higher but comparable off-rates”. The “Binding to irrelevant protein (SPR control)” value in data set [9] is “no specific binding was detected”.
